In patent US20210355194A1 (TWIST BIOSCIENCE, published 2021) one finds Kd data, which are given here for 33 molecules.

The labels stand for the following.
B1: variant 6-18 (Fc fusion)
VHH: EVQLVESGGGLVQPGGSLRLSCAASGLTFRNYAMGWFRQAPGKEREFIAGMMWSGGTTTYADSVKGRFTISADNSKNTAYLQMNSLKPEDTAVYYCAREGYYYDSSGYLNYFDYWGQGTLVTVSS
B2: variant 6-19 (Fc fusion)
VHH: EVQLVESGGGLVQPGGSLRLSCAASGSILSIAVMGWFRQAPGKEREFVAAISPSAVTTYYADSVKGRFTISADNSKNTAYLQMNSLKPEDTAVYYCAIGYYDSSGYFDYWGQGTLVTVSS
B3: variant 6-39 (Fc fusion)
VHH: EVQLVESGGGLVQPGGSLRLSCAASGFTFSPSWMGWFRQAPGKEREFVAAISWSGGSTAYADSVKGRFTISADNSKNTAYLQMNSLKPEDTAVYYCHGLGEGDPYGDYEGYFDLWGQGTLVTVSS
B4: variant 6-36 (Fc fusion)
VHH: EVQLVESGGGLVQPGGSLRLSCAASGFDFSVSWMGWFRQAPGKEREFVTAITWSGDSTNYADSVKGRFTISADNSKNTAYLQMNSLKPEDTAVYYCASLLHTGPSGGNYFDYWGQGTLVTVSS
B5: variant 6-6 (Fc fusion)
VHH: EVQLVESGGGLVQPGGSLRLSCAASGTTLDYYAMGWFRQAPGKERELVAAISWSGGSTAYADSVKGRFTISADNSKNTAYLQMNSLKPEDTAVYYCAREDYYDSSGYSWGQGTLVTVSS
B6: variant 6-41 (Fc fusion)
VHH: EVQLVESGGGLVQPGGSLRLSCAASGFTFSTSWMGWFRQAPGKEREFVASINEYGGRNYADSVKGRFTISADNSKNTAYLQMNSLKPEDTAVYYCAGLHYYYDSSGYNPTEYYGMDVWGQGTLVTVSS
B7: variant 6-17 (Fc fusion)
VHH: EVQLVESGGGLVQPGGSLRLSCAASGNTGSTGYMGWFRQAPGKEREMVAGVINDGSTVYADSVKGRFTISADNSKNTAYLQMNSLKPEDTAVYYCARLATSHQDGTGYLFDYWGQGTLVTVSS
B8: variant 6-37 (Fc fusion)
VHH: EVQLVESGGGLVQPGGSLRLSCAASGHTFSTSWMGWFRQAPGKEREFVATINSLGGTNYADSVKGRFTISADNSKNTAYLQMNSLKPEDTAVYYCARVSSGDYGMDVWGQGTLVTVSS
B9: variant 6-4 (Fc fusion)
VHH: EVQLVESGGGLVQPGGSLRLSCAASGFTRDYYTMGWFRQAPGKEREFVAAISRSGSLTSYADSVKGRFTISADNSKNTAYLQMNSLKPEDTAVYYCANLAYYDSSGYYDYWGQGTLVTVSS
B10: variant 6-28 (Fc fusion)
VHH: EVQLVESGGGLVQPGGSLRLSCAASGDTYGSYWMGWFRQAPGKEREFVATITSDDRTNYADSVKGRFTISADNSKNTAYLQMNSLKPEDTAVYYCARVTSSLSGMDVWGQGTLVTVSS
B11: variant 6-24 (Fc fusion)
VHH: EVQLVESGGGLVQPGGSLRLSCAASGFTLDYYAMGWFRQAPGKEREFVAAINWSGDNTHYADSVKGRFTISADNSKNTAYLQMNSLKPEDTAVYYCARAPFYCTTTKCQDNYYYMDVWGQGTLVTVSS
B12: variant 6-42 (Fc fusion)
VHH: EVQLVESGGGLVQPGGSLRLSCAASGDTYGSYWMGWFRQAPGKEREFVAVITSGGSTNYADSVKGRFTISADNSKNTAYLQMNSLKPEDTAVYYCTHVQNSYYYAMDVWGQGTLVTVSS
B13: variant 6-38 (Fc fusion)
VHH: EVQLVESGGGLVQPGGSLRLSCAASGNTFSGGFMGWFRQAPGKEREFVAVISSLSSKSYADSVKGRFTISADNSKNTAYLQMNSLKPEDTAVYYCAKVDSGYDYWGQGTLVTVSS
B14: variant 6-13 (Fc fusion)
VHH: EVQLVESGGGLVQPGGSLRLSCAASGLTFNDYAMGWFRQAPGKEREFVAHIPRSTYSPYYADSVKGRFTISADNSKNTAYLQMNSLKPEDTAVYYCAFLVGPQGVDHGAFDVWGQGTLVTVSS
B15: variant 6-25 (Fc fusion)
VHH: EVQLVESGGGLVQPGGSLRLSCAASGLTFGTYTMGWFRQAPGKEREFVAAISRFGSTYYADSVKGRFTISADNSKNTAYLQMNSLKPEDTAVYYCARGGDYDFWSVDYMDVWGQGTLVTVSS
B16: variant 6-40 (Fc fusion)
VHH: EVQLVESGGGLVQPGGSLRLSCAASGFTFSDYWMGWFRQAPGKERELVARVWWNGGSAYYADSVKGRFTISADNSKNTAYLQMNSLKPEDTAVYYCAREVLRQQVVLDYWGQGTLVTVSS
B17: variant 6-33 (Fc fusion)
VHH: EVQLVESGGGLVQPGGSLRLSCAASGTFQRINHMGWFRQAPGKEREFVATINTGGQPNYADSVKGRFTISADNSKNTAYLQMNSLKPEDTAVYYCASLIAAQDYYFDYWGQGTLVTVSS
B18: variant 6-43 (Fc fusion)
VHH: EVQLVESGGGLVQPGGSLRLSCAASGRTFSSYAMMGWFRQAPGKEREFVASVNWDASQINYADSVKGRFTISADNSKNTAYLQMNSLKPEDTAVYYCTTLGAVYFDSSGYHDYFDYWGQGTLVTVSS
B19: variant 6-23 (Fc fusion)
VHH: EVQLVESGGGLVQPGGSLRLSCAASGSIFSMNTMGWFRQAPGKEREFVALINRSGGGINYADSVKGRFTISADNSKNTAYLQMNSLKPEDTAVYYCVRLSSGYYDFDYWGQGTLVTVSS
B20: variant 6-32 (Fc fusion)
VHH: EVQLVESGGGLVQPGGSLRLSCAASGFTLDYYDMGWFRQAPGKEREFVALISWSGGSTYYADSVKGRFTISADNSKNTAYLQMNSLKPEDTAVYYCATDFYGWGTRERDAFDIWGQGTLVTVSS
B21: variant 6-16 (Fc fusion)
VHH: EVQLVESGGGLVQPGGSLRLSCAASGFTFDDAAMGWFRQAPGKEREFVAHISWSGGSTYYADSVKGRFTISADNSKNTAYLQMNSLKPEDTAVYYCATFGATVTATNDAFDIWGQGTLVTVSS
B22: variant 6-10 (Fc fusion)
VHH: EVQLVESGGGLVQPGGSLRLSCAASGSIASIHAMGWFRQAPGKEREFVAAISRSGGFGSYADSVKGRFTISADNSKNTAYLQMNSLKPEDTAVYYCARDDKYYDSSGYPAYFQHWGQGTLVTVSS
B23: variant 6-14 (Fc fusion)
VHH: EVQLVESGGGLVQPGGSLRLSCAASGITFRFKAMGWFRQAPGKEREFVAAVSWDGRNTYYADSVKGRFTISADNSKNTAYLQMNSLKPEDTAVYYCASDYYYMDVWGQGTLVTVSS
B24: variant 6-26 (Fc fusion)
VHH: EVQLVESGGGLVQPGGSLRLSCAASGDTFSTSWMGWFRQAPGKEREFVATINTGGGTNYADSVKGRFTISADNSKNTAYLQMNSLKPEDTAVYYCARVTTSFDYWGQGTLVTVSS
notes: VHH-Fc
B25: variant 6-77 (Fc fusion)
VHH: EVQLVESGGGLVQPGGSLRLSCAASGFTFDRSWMGWFRQAPGKEREFVAAVTEGGTTSYADSVKGRFTISADNSKNTAYLQMNSLKPEDTAVYYCARADYDFDYWGQGTLVTVSS
B26: variant 6-30 (Fc fusion)
VHH: EVQLVESGGGLVQPGGSLRLSCAASGFAFGDSWMGWFRQAPGKEREFVATINWSGVTAYADSVKGRFTISADNSKNTAYLQMNSLKPEDTAVYYCARADGYFDYWGQGTLVTVSS
B27: variant 6-12 (Fc fusion)
VHH: EVQLVESGGGLVQPGGSLRLSCAASGSTYTTYSMGWFRQAPGKEREFVAAISGSENVTSYADSVKGRFTISADNSKNTAYLQMNSLKPEDTAVYYCARVDDYMDVWGQGTLVTVSS
B28: variant 6-5 (Fc fusion)
VHH: EVQLVESGGGLVQPGGSLRLSCAASGRTFTMGWFRQAPGKEREFVASTNSAGSTNYADSVNGRFTISADNSKNTAYLQMNSLKPEDTAVYYCTTVDQYFDYWGQGTLVTVSS
B29: variant 6-34 (Fc fusion)
VHH: EVQLVESGGGLVQPGGSLRLSCAASGSAFRSNAMGWFRQAPGKEREFVAHISWSSKSTYYADSVKGRFTISADNSKNTAYLQMNSLKPEDTAVYYCATYCSSTSCFDYWGQGTLVTVSS
B30: variant 6-22 (Fc fusion)
VHH: EVQLVESGGGLVQPGGSLRLSCAASGRTFSEVVMGWFRQAPGKEREFVATIHSSGSTSYADSVKGRFTISADNSKNTAYLQMNSLKPEDTAVYYCVRVTSDYSMDSWGQGTLVTVSS
B31: variant 6-15 (Fc fusion)
VHH: EVQLVESGGGLVQPGGSLRLSCAASGSTVLINAMGWFRQAPGKEREFVAAVRWSDDYTYYADSVKGRFTISADNSKNTAYLQMNSLKPEDTAVYYCAKEGRAGSLDYWGQGTLVTVSS
B32: variant 6-31 (Fc fusion)
VHH: EVQLVESGGGLVQPGGSLRLSCAASGDTFSANRMGWFRQAPGKEREFVASITWSSANTYYADSVKGRFTISADNSKNTAYLQMNSLKPEDTAVYYCATFNWNDEGFDFWGQGTLVTVSS
B33: variant 6-20 (Fc fusion)
VHH: EVQLVESGGGLVQPGGSLRLSCAASGSTLPYHAMGWFRQAPGKEREFVAAITWNGASTSYADSVKGRFTISADNSKNTAYLQMNSLKPEDTAVYYCARDRYYDTSASYFESETWGQGTLVTVSS
notes: VHH-Fc

For this experiment, the target named is CV S-protein construct 6 trimer TP31001F (SARS-CoV-2, UniProt P0DTC2 14-1208). Put plainly: SPR.
B1: the affinity, expressed as Kd, was 5.3 nM.

For the molecule B2, the Kd was 1 nM. Next, B3: 0.1 nM; B4: 0.8 nM; B5: 67.7 nM.

On to B6, for which the Kd is 1 nM. Take B7: binding was put at a Kd of 0.6 nM. In turn, B8 returned a Kd of 0.7 nM. In turn, B9 showed a Kd of 0.5 nM. For B10 the value was 0.4 nM; for B11, 0.2 nM; for B12, 7.8 nM. Next, B13: 0.5 nM. Next, B14: 0.6 nM; B15: 5.8 nM; B16: 1.9 nM. The molecule B17 returned a Kd of 0.2 nM. Next, B18: 0.7 nM; B19: 0.3 nM; B20: 0.1 nM. For B21 the value was 2.2 nM.

For B22, the Kd is 0.6 nM.

For B23, the Kd amounted to 466 nM. For B24 the value was 0.1 nM. Molecule B25 had a Kd of 3.5 nM. For B26 the value was 0.1 nM.

The molecule B27 registered a Kd of 1.4 nM.

Molecule B28 showed a Kd of 0.8 nM. The molecule B29 displayed a Kd of 0.7 nM. For B30 the value was 1.8 nM; for B31, 9050 nM. For the molecule B32, the Kd worked out at 20.7 nM.

Turning to B33, binding was characterised by a dissociation constant (Kd) of 0.3 nM.

As a reminder, the Kd is the concentration at which binding is half-saturated. A lower Kd goes with higher affinity.
